Among the data in patent US20170296640A1 (IMMATICS BIOTECHNOLOGIES, published 2017) are peptide exchange yield values, retold here.

The labels stand for the following.
B1: KLLEEIEFL (SEQ ID NO: 165) (peptide)
peptide: KLLEEIEFL
B2: YLNISQVNV (SEQ ID NO: 201) (peptide)
peptide: YLNISQVNV
B3: ALAAGGYDV (SEQ ID NO: 202) (peptide)
peptide: ALAAGGYDV
B4: GILQLVESV (SEQ ID NO: 180) (peptide)
peptide: GILQLVESV
B5: VILDSVASV (SEQ ID NO: 173) (peptide)
peptide: VILDSVASV
B6: YLYEAEEATTL (SEQ ID NO: 177) (peptide)
peptide: YLYEAEEATTL
B7: LLPPPPPVA (SEQ ID NO: 182) (peptide)
peptide: LLPPPPPVA
B8: GLLHEVVSL (SEQ ID NO: 145) (peptide)
peptide: GLLHEVVSL
B9: VLFETVLTI (SEQ ID NO: 183) (peptide)
peptide: VLFETVLTI
B10: ILNPVTTKL (SEQ ID NO: 149) (peptide)
peptide: ILNPVTTKL
B11: YLLTDNVVKL (SEQ ID NO: 197) (peptide)
peptide: YLLTDNVVKL
B12: GLEDEMYEV (SEQ ID NO: 188) (peptide)
peptide: GLEDEMYEV
B13: FLNSFVFKM (SEQ ID NO: 187) (peptide)
peptide: FLNSFVFKM
B14: VIIPLLSSV (SEQ ID NO: 17) (peptide)
peptide: VIIPLLSSV
B15: YLLDFEDRL (SEQ ID NO: 200) (peptide)
peptide: YLLDFEDRL
B16: KLMTSLVKV (SEQ ID NO: 155) (peptide)
peptide: KLMTSLVKV
B17: ILVKQSPML (SEQ ID NO: 151) (peptide)
peptide: ILVKQSPML
B18: LLLSDSGFYL (SEQ ID NO: 159) (peptide)
peptide: LLLSDSGFYL
B19: ICAGHVPGV (SEQ ID NO: 148) (peptide)
peptide: ICAGHVPGV
B20: SSLEENLLHQV (SEQ ID NO: 169) (peptide)
peptide: SSLEENLLHQV
B21: GLSDISAQV (SEQ ID NO: 191) (peptide)
peptide: GLSDISAQV
B22: ILSEKEYKL (SEQ ID NO: 150) (peptide)
peptide: ILSEKEYKL
B23: RLADLKVSI (SEQ ID NO: 162) (peptide)
peptide: RLADLKVSI
B24: SIFDAVLKGV (SEQ ID NO: 163) (peptide)
peptide: SIFDAVLKGV
B25: KVLEFLAKV (SEQ ID NO: 157) (peptide)
peptide: KVLEFLAKV
B26: KLMNIQQQL (SEQ ID NO: 154) (peptide)
peptide: KLMNIQQQL
B27: VLEAILPLV (SEQ ID NO: 19) (peptide)
peptide: VLEAILPLV
B28: TLLDVISAL (SEQ ID NO: 171) (peptide)
peptide: TLLDVISAL
B29: KIMYTLVSV (SEQ ID NO: 152) (peptide)
peptide: KIMYTLVSV
B30: IIIEDLLEA (SEQ ID NO: 15) (peptide)
peptide: IIIEDLLEA
B31: AVLGTSWQL (SEQ ID NO: 184) (peptide)
peptide: AVLGTSWQL
B32: FVDTNLYFL (SEQ ID NO: 179) (peptide)
peptide: FVDTNLYFL
B33: KLLKGIYAI (SEQ ID NO: 153) (peptide)
peptide: KLLKGIYAI
B34: KLTDQPPLV (SEQ ID NO: 18) (peptide)
peptide: KLTDQPPLV
B35: TLQDSLEFI (SEQ ID NO: 172) (peptide)
peptide: TLQDSLEFI
B36: SLSHLVPAL (SEQ ID NO: 189) (peptide)
peptide: SLSHLVPAL
B37: SLAPFDREPFTL (SEQ ID NO: 194) (peptide)
peptide: SLAPFDREPFTL
B38: LLFDQNDKV (SEQ ID NO: 181) (peptide)
peptide: LLFDQNDKV
B39: VLVEITDVDFAA (SEQ ID NO: 174) (peptide)
peptide: VLVEITDVDFAA
B40: GLIELVDQL (SEQ ID NO: 190) (peptide)
peptide: GLIELVDQL
B41: YLHIYESQL (SEQ ID NO: 176) (peptide)
peptide: YLHIYESQL
B42: KVQDVLHQV (SEQ ID NO: 158) (peptide)
peptide: KVQDVLHQV
B43: VMESILLRL (SEQ ID NO: 175) (peptide)
peptide: VMESILLRL
B44: SLNSTTWKV (SEQ ID NO: 199) (peptide)
peptide: SLNSTTWKV
B45: SLFSITKSV (SEQ ID NO: 167) (peptide)
peptide: SLFSITKSV
B46: FLDVSRDFV (SEQ ID NO: 186) (peptide)
peptide: FLDVSRDFV
B47: YVLQGEFFL (SEQ ID NO: 178) (peptide)
peptide: YVLQGEFFL
B48: SLFDGAVISTV (SEQ ID NO: 164) (peptide)
peptide: SLFDGAVISTV
B49: GLLQQPPAL (SEQ ID NO: 146) (peptide)
peptide: GLLQQPPAL
B50: FIAQLNNVEL (SEQ ID NO: 185) (peptide)
peptide: FIAQLNNVEL
B51: NLMLELETV (SEQ ID NO: 161) (peptide)
peptide: NLMLELETV
B52: GMAAEVPKV (SEQ ID NO: 192) (peptide)
peptide: GMAAEVPKV
B53: SLADSMPSL (SEQ ID NO: 193) (peptide)
peptide: SLADSMPSL
B54: KMLEDDLKL (SEQ ID NO: 156) (peptide)
peptide: KMLEDDLKL
B55: TLIAAILYL (SEQ ID NO: 16) (peptide)
peptide: TLIAAILYL
B56: LLPPPSPAA (SEQ ID NO: 160) (peptide)
peptide: LLPPPSPAA
B57: ALIPDLNQI (SEQ ID NO: 195) (peptide)
peptide: ALIPDLNQI
B58: SLLSPLLSV (SEQ ID NO: 168) (peptide)
peptide: SLLSPLLSV
B59: GLLSAVSSV (SEQ ID NO: 198) (peptide)
peptide: GLLSAVSSV
B60: GLSEYQRNFL (SEQ ID NO: 147) (peptide)
peptide: GLSEYQRNFL

For the experiment, the target named is T1, HLA-A*02:01 (peptide-receptive MHC class I monomer after UV cleavage of the UV-sensitive ligand) (human).
T1 construct: MHC monomers loaded by UV-ligand exchange and captured on streptavidin plates
Briefly: UV ligand-exchange ELISA; exchange yield grade (+ >=10%, ++ >=20%, +++ >=50%, ++++ >=75%). An excerpt: Candidate peptides for T cell based therapies according to the present invention were further tested for their MHC binding capacity (affinity). The individual peptide-MHC complexes were produced by UV-ligand exchange, where a UV-sensitive peptide is cleaved upon UV-irradiation, and exchanged with the peptide of interest as analyzed. Only peptide candidates that can effectively bind and stabilize the peptide-receptive MHC molecules prevent dissociation of the MHC complexes. To determine the yield of the exchange reaction, an ELISA was performed based on the detection of the light chain (β2m) of stabilized MHC complexes. The assay was performed as generally described in Rodenko et al. (Rodenko et al., 2006).
96 well MAXISorp plates (NUNC) were coated over night with 2 ug/ml streptavidin in PBS at room temperature, washed 4× and blocked for 1 h at 37° C. in 2% BSA containing blocking buffer. Refolded HLA-A*02:01/MLA-001 monomers served as standards, covering the range of 15-500 ng/ml. Peptide-MHC monomers of the UV-exchange reaction were diluted 100 fold in blocking buffer. Samples were incubated for 1 h at 37° C., washed four times, incubated with 2 ug/ml HRP conjugated anti-β2m for 1 h at 37° C., washed again and detected with TMB solution that is stopped with […]. Absorption was measured at 450 nm. Candidate peptides that show a high exchange yield (preferably higher than 50%, most preferred higher than 75%) are generally preferred for a generation and production of antibodies or fragments thereof, and/or T cell receptors or fragments thereof, as they show sufficient avidity to the MHC molecules and prevent dissociation of the MHC complexes.
In the case of B1, the peptide exchange yield lay in the range of 50 to 75%. Consider B2, for which the peptide exchange yield lay in the range of 50 to 75%. With B3 the figure was 20 to 50%; with B4, 50 to 75%; with B5, at least 75%. For B6, the peptide exchange yield was 50 to 75%. On to B7, for which the peptide exchange yield is at least 75%. B8 gave a peptide exchange yield of 50 to 75%. The molecule B9 came in with a peptide exchange yield of 50 to 75%.

The molecule B10 showed a peptide exchange yield of 50 to 75%. With B11 the figure was 20 to 50%; with B12, 20 to 50%. B13 yielded a peptide exchange yield of 20 to 50%.

In turn, B14 displayed a peptide exchange yield of 50 to 75%. The molecule B15 gave a peptide exchange yield of at least 75%. With B16 the figure was 50 to 75%; with B17, 50 to 75%. The same measure for B18: 50 to 75%; for B19: 50 to 75%; for B20: 50 to 75%. For the molecule B21, the peptide exchange yield fell in the range of 50 to 75%. In the case of B22, the peptide exchange yield lay within 50 to 75%.

B23 registered a peptide exchange yield of at least 75%. In the case of B24, the peptide exchange yield was at least 75%.

Take B25: the peptide exchange yield was in the range of 50 to 75%. B26 had a peptide exchange yield of 50 to 75%. Take B27: the peptide exchange yield is at least 75%. With B28 the figure was at least 75%. As to B29, the peptide exchange yield was 20 to 50%.

In the case of B30, the peptide exchange yield was at least 75%. B31 had a peptide exchange yield of 50 to 75%. The same measure for B32: 50 to 75%; for B33: 50 to 75%. As for B34, the peptide exchange yield lay within 50 to 75%. B35 gave a peptide exchange yield of at least 75%. Turning to B36, the peptide exchange yield lay in the range of 50 to 75%. With B37 the figure was 20 to 50%; with B38, 50 to 75%; with B39, at least 75%. B40 yielded a peptide exchange yield of 50 to 75%.

B41 registered a peptide exchange yield of 50 to 75%.

For B42, the peptide exchange yield lay in the range of 50 to 75%.

B43 had a peptide exchange yield of 50 to 75%. B44 yielded a peptide exchange yield of 50 to 75%.

B45 came in with a peptide exchange yield of 50 to 75%. In turn, B46 returned a peptide exchange yield of 20 to 50%. B47 came in with a peptide exchange yield of 50 to 75%. Turning to B48, the peptide exchange yield lay within 50 to 75%. B49 returned a peptide exchange yield of 50 to 75%. B50: the peptide exchange yield fell in the range of 50 to 75%.

As to B51, the peptide exchange yield lay within 50 to 75%. B52 yielded a peptide exchange yield of 20 to 50%. As for B53, the peptide exchange yield was in the range of 20 to 50%. With B54 the figure was 50 to 75%; with B55, 20 to 50%. As to B56, the peptide exchange yield is 50 to 75%.

In turn, B57 returned a peptide exchange yield of 50 to 75%. B58 came in with a peptide exchange yield of 50 to 75%.

Take B59: the peptide exchange yield lay within 50 to 75%.

On to B60, for which the peptide exchange yield was 50 to 75%.
